Columns and labels:
[1] = target: T1, CST complex (CTC1-STN1-TEN1) (human, UniProt Q2NKJ3;Q9H668;Q86WV5 1-1217;1-368;1-123); test: EMSA
[2] = target: T1, CST complex (CTC1-STN1-TEN1); test: smFRET
[3] = target: T1, CST complex (CTC1-STN1-TEN1); test: EMSA; remark: listed apart in the source
[4] = target: T1, CST complex (CTC1-STN1-TEN1); test: EMSA; remark: listed apart in the source
[5] = target: T1, CST complex (CTC1-STN1-TEN1); test: smFRET; remark: listed apart in the source
[6] = target: T1, CST complex (CTC1-STN1-TEN1); test: EMSA; remark: listed apart in the source
[7] = target: T1, CST complex (CTC1-STN1-TEN1); test: EMSA; remark: listed apart in the source
[8] = target: T1, CST complex (CTC1-STN1-TEN1); test: EMSA; remark: listed apart in the source

T1 sequence (Q2NKJ3 whole entry, chain 1 of 3): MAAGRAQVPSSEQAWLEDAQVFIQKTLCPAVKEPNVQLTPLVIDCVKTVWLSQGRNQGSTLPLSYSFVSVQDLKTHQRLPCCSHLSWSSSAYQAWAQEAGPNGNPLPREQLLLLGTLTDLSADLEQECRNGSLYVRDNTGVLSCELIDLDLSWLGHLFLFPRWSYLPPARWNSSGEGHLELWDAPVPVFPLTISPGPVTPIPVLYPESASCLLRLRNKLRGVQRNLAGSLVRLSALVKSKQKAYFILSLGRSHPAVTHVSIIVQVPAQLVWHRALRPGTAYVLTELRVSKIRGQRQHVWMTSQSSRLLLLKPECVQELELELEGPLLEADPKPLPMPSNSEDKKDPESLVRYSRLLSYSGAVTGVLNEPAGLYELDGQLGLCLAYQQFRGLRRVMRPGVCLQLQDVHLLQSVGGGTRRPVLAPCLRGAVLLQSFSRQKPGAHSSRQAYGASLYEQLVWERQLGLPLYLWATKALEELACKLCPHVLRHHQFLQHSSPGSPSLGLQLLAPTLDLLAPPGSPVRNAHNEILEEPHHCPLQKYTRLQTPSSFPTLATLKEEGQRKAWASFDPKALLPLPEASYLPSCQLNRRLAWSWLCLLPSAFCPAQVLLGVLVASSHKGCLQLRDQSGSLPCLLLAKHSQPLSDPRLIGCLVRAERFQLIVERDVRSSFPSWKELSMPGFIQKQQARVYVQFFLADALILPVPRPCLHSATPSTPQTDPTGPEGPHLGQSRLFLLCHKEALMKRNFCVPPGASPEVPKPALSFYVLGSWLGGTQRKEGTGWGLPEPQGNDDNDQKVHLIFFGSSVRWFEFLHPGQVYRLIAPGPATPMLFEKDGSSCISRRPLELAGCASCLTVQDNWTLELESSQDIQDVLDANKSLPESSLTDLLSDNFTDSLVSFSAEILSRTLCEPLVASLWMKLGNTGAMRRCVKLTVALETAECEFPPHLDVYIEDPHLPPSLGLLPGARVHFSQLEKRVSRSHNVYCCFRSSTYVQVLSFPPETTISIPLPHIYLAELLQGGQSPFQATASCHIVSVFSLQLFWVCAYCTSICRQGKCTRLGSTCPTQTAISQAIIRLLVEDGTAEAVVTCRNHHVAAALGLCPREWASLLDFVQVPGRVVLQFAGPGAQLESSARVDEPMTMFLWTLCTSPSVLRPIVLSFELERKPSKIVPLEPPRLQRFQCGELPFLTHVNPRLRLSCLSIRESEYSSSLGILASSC
T1 sequence (Q9H668 whole entry, chain 2 of 3): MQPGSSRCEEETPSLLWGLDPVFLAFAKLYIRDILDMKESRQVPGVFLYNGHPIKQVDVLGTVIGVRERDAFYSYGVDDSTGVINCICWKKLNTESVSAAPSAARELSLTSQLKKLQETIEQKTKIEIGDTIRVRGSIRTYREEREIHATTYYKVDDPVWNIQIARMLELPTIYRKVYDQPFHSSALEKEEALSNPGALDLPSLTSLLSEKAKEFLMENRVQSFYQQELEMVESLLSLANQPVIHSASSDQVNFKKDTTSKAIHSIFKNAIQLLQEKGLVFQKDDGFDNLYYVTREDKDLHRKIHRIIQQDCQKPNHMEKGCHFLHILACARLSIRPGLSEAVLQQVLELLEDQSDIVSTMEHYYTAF
T1 sequence (Q86WV5 whole entry, chain 3 of 3): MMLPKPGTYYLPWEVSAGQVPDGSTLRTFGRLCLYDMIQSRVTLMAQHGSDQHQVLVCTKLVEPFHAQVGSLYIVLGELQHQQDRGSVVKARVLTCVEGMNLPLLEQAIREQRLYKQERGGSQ

B1: Telomere fold-back 18 nt 3' overhang (structured_DNA)
DNA: CTAACCGCATCTAGCTTTTTGCTAGATGCGGTTAGGGTTAGGGTTAGGGTTAG
binding result [1]: binds

B2: smFRET 3G4-Cy3 (mixed)
DNA 1: TGGCGACGGCAGCGAGGCTTAGGGTTAGGGTTAGGGTTAGGG
DNA 2: GCCTCGCTGCCGTCGCCA
binding result [2]: binds

GGTTAGGGTTAGGGTTAG (ssDNA) [Tel 18]
binding result [3]: binds

TTAGGGTTAGGGTTAGGGTTAGGGAGCGTA (structured_DNA) [3G46]
binding result [4]: binds

B3: Non-Tel fold-back 18 nt 3' overhang (structured_DNA)
DNA: ACGACTGCATCTAGCTTTTTGCTAGATGCAGTCGTAGCGTATCCGTTCAGTTG
binding result [1]: binds

TTAGGGTTAGGGTTAGGGTTAGGGTTAGGG (structured_DNA) [3G5 (G5 in text)]
binding result [4]: binds

B4: smFRET 3G46-Cy3 (mixed)
DNA 1: TGGCGACGGCAGCGAGGCTTAGGGTTAGGGTTAGGGTTAGGGAGCGTA
DNA 2: GCCTCGCTGCCGTCGCCA
binding result [2]: binds

B5: smFRET non-telomeric junction, 18 nt overhang (mixed)
DNA 1: TGGCGACGGCAGCGAGGCAGCGTATCCGTTCAGTTG
DNA 2: GCCTCGCTGCCGTCGCCA
binding result [5]: binds

GGGTTAGGGTTAGGGTTAGGG (structured_DNA) [G4]
binding result [4]: binds

TTAGGGTTAGGGTTAGGGTTAGGG (structured_DNA) [3G4]
binding result [4]: binds

B6: Two-oligonucleotide junction 32/22 (mixed)
DNA 1: GCGTACTCAGTGACTCAGATCGAGCGTATCCG
DNA 2: CGATCTGAGTCACTGAGTACGC
binding result [6]: binds

AGCGTATCCGTTCAGTTG (ssDNA) [Non-Tel 18]
binding result [7]: no binding

CGATCTGAGTCACTGAGTACGC (ssDNA) [Non-Tel 22]
binding result [8]: no binding

ACGACTGCATCTAGCTTTTTGCTAGATGCAGTCGT (structured_DNA) [Non-Tel fold-back (dsDNA), no overhang]
binding result [7]: no binding

B7: Mixed fold-back 18 nt 3' overhang (structured_DNA)
DNA: ACGACTGCATCTAGCTTTTTGCTAGATGCAGTCGTGGTTAGGGTTAGGGTTAG
binding result [7]: binds

— PMC5716219
